Source: PMC12167799, “The role of human Shu complex in ATP-dependent regulation of RAD51 filaments during homologous recombination–associated DNA damage response”

Key:
[1] = target: T1, RAD51 (Homo sapiens, UniProt Q06609 1-339); assay: DNase I protection; 2 mM ATP; FPA: 5 nM 6-FAM DNA, 37 C, 2 mM nucleotide where stated (buffer not given in material); EMSA: 0.05 uM 6-FAM DNA, 5%/15% native PAGE; RAD51 filaments: 2 mM ATP; settings: protein: recombinant, tags: none, chain copies: 10
[2] = target: T2, RAD51;SWSAP1 (hSWS1-SWSAP1, WT);hSWS1 (Homo sapiens;Homo sapiens;Homo sapiens, UniProt Q06609;Q6NVH7;Q19AV6 1-339;22-250;1-140, ||); assay: DNase I protection; 2 mM ATP; Shu increases digestion of filament; FPA: 5 nM 6-FAM DNA, 37 C, 2 mM nucleotide where stated (buffer not given in material); EMSA: 0.05 uM 6-FAM DNA, 5%/15% native PAGE; RAD51 filaments: 2 mM ATP; settings: protein: recombinant;recombinant;recombinant, tags: none;N-terminal 6xHis-TEV, cleaved;none
[3] = target: T1, RAD51; assay: competition (fluorescence intensity); 2 mM ATP; 100x unlabeled dT39 lowers signal ~30%; FPA: 5 nM 6-FAM DNA, 37 C, 2 mM nucleotide where stated (buffer not given in material); EMSA: 0.05 uM 6-FAM DNA, 5%/15% native PAGE; RAD51 filaments: 2 mM ATP; settings: protein: recombinant, tags: none, chain copies: 10
[4] = target: T2, RAD51;SWSAP1 (hSWS1-SWSAP1, WT);hSWS1; assay: competition (fluorescence intensity); 2 mM ATP; Shu inhibits exchange at 5' end; FPA: 5 nM 6-FAM DNA, 37 C, 2 mM nucleotide where stated (buffer not given in material); EMSA: 0.05 uM 6-FAM DNA, 5%/15% native PAGE; RAD51 filaments: 2 mM ATP; settings: protein: recombinant;recombinant;recombinant; tags: none;N-terminal 6xHis-TEV, cleaved;none; label: 5' 6-FAM
[5] = target: RAD51;SWSAP1 D96A (Walker B);hSWS1 (Homo sapiens;Homo sapiens;Homo sapiens, UniProt Q06609;Q6NVH7;Q19AV6 1-339;22-250;1-140, |D117A|); assay: competition (fluorescence intensity); 2 mM ATP; D96A stabilizes 5' end like WT; FPA: 5 nM 6-FAM DNA, 37 C, 2 mM nucleotide where stated (buffer not given in material); EMSA: 0.05 uM 6-FAM DNA, 5%/15% native PAGE; RAD51 filaments: 2 mM ATP; settings: protein: recombinant;recombinant;recombinant; tags: none;N-terminal 6xHis-TEV, cleaved;none; label: 5' 6-FAM
[6] = target: T3, SWSAP1 (hSWS1-SWSAP1, WT);hSWS1 (Homo sapiens;Homo sapiens, UniProt Q6NVH7;Q19AV6 22-250;1-140, |); assay: fluorescence polarization; no nucleotide; FPA: 5 nM 6-FAM DNA, 37 C, 2 mM nucleotide where stated (buffer not given in material); EMSA: 0.05 uM 6-FAM DNA, 5%/15% native PAGE; RAD51 filaments: 2 mM ATP; settings: protein: recombinant;recombinant, tags: N-terminal 6xHis-TEV, cleaved;none, copies: 1;1
T3 sequence 1: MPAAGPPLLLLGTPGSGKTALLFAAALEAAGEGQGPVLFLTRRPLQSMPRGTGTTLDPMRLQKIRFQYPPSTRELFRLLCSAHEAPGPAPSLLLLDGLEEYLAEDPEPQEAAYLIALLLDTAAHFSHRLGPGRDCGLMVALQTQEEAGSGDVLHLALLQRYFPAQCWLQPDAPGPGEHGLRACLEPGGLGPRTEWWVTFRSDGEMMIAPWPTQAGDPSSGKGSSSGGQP
T3 sequence 2: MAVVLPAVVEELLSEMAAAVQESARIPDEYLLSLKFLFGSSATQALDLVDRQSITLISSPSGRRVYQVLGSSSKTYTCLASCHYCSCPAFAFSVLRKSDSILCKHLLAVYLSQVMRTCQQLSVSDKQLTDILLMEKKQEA

[7] = target: T4, SWSAP1 D96A (Walker B);hSWS1 (Homo sapiens;Homo sapiens, UniProt Q6NVH7;Q19AV6 22-250;1-140, D117A|); assay: as above; settings: protein: recombinant;recombinant, tags: N-terminal 6xHis-TEV, cleaved;none, copies: 1;1
T4 sequence 1: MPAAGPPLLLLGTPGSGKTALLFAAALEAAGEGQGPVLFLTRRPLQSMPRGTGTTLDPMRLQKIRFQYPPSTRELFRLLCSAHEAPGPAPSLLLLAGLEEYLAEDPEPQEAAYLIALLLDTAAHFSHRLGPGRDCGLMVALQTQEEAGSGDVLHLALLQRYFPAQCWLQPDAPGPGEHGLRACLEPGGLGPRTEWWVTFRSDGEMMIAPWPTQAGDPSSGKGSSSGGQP
T4 sequence 2: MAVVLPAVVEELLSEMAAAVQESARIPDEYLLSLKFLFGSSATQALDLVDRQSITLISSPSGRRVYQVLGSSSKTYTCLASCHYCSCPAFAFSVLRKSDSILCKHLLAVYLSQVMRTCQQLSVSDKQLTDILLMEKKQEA

[8] = target: T5, SWSAP1 K18A (Walker A);hSWS1 (Homo sapiens;Homo sapiens, UniProt Q6NVH7;Q19AV6 22-250;1-140, K39A|); assay: as above; settings: protein: recombinant;recombinant, tags: N-terminal 6xHis-TEV, cleaved;none, copies: 1;1
T5 sequence 1: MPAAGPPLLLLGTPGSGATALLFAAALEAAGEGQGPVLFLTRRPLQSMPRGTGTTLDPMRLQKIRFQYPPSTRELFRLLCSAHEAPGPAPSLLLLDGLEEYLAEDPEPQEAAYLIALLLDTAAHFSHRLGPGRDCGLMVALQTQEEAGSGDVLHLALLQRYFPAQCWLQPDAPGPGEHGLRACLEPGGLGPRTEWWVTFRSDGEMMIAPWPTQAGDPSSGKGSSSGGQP
T5 sequence 2: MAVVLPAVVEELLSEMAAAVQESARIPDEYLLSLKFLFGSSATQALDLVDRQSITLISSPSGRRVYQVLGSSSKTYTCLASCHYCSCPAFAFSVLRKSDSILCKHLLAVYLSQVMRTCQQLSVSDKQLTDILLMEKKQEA

[9] = target: T4, SWSAP1 D96A (Walker B);hSWS1; assay: fluorescence polarization; 2 mM ATP; FPA: 5 nM 6-FAM DNA, 37 C, 2 mM nucleotide where stated (buffer not given in material); EMSA: 0.05 uM 6-FAM DNA, 5%/15% native PAGE; RAD51 filaments: 2 mM ATP; settings: protein: recombinant;recombinant, tags: N-terminal 6xHis-TEV, cleaved;none, copies: 1;1
[10] = target: T5, SWSAP1 K18A (Walker A);hSWS1; assay: as above; settings: protein: recombinant;recombinant, tags: N-terminal 6xHis-TEV, cleaved;none, copies: 1;1
[11] = target: T3, SWSAP1 (hSWS1-SWSAP1, WT);hSWS1; assay: as above; settings: protein: recombinant;recombinant, tags: N-terminal 6xHis-TEV, cleaved;none, copies: 1;1
[12] = target: T4, SWSAP1 D96A (Walker B);hSWS1; assay: fluorescence polarization; 2 mM ADP; FPA: 5 nM 6-FAM DNA, 37 C, 2 mM nucleotide where stated (buffer not given in material); EMSA: 0.05 uM 6-FAM DNA, 5%/15% native PAGE; RAD51 filaments: 2 mM ATP; settings: protein: recombinant;recombinant, tags: N-terminal 6xHis-TEV, cleaved;none, copies: 1;1
[13] = target: T5, SWSAP1 K18A (Walker A);hSWS1; assay: as above; settings: protein: recombinant;recombinant, tags: N-terminal 6xHis-TEV, cleaved;none, copies: 1;1
[14] = target: T3, SWSAP1 (hSWS1-SWSAP1, WT);hSWS1; assay: as above; settings: protein: recombinant;recombinant, tags: N-terminal 6xHis-TEV, cleaved;none, copies: 1;1
[15] = label: 3' 6-FAM on strand 1, fork 1:2, 19 bp duplex, 20 nt arms
[16] = label: 3' 6-FAM on strand 1, 5' overhang 20 nt
[17] = label: 3' 6-FAM on strand 1, blunt
[18] = label: 3' 6-FAM on strand 1, 3' overhang 20 nt
[19] = label: 5' 6-FAM on strand 1, blunt

T1 sequence (Q06609 whole entry): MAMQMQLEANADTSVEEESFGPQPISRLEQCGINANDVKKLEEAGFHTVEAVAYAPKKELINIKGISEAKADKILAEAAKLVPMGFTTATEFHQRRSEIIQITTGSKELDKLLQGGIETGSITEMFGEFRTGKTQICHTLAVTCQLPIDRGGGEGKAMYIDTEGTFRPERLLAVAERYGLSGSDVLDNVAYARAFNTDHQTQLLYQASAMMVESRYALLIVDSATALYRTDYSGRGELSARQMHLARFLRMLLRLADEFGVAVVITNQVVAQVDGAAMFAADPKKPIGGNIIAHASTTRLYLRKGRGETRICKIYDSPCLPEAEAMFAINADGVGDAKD
T2 sequence (Q06609 whole entry, one chain of several): as the sequence (Q06609 whole entry) above
Sequence of RAD51;SWSAP1 D96A (Walker B);hSWS1 (Q06609 whole entry, stated change not applied, one chain of several): as the sequence (Q06609 whole entry) above

Binder: TTTTTTTTTTTTTTTTTTTTTTTTTTTTTT (ssDNA) [*5'-(T)30]
- binding result ([1]; label: 5' 6-FAM): binds
- binding result ([2]; label: 5' 6-FAM): binds

Binder: TTTTTTTTTTTTTTTTTTTTTTTTTTTTTT (ssDNA) [*3'-(T)30]
- binding result ([1]; label: 3' 6-FAM): binds
- binding result ([2]; label: 3' 6-FAM): binds

Binder: TTTTTTTTTTTTTTTTTTTTTTTTTTTTTTTTTTTTTTT (ssDNA) [*5'-(T)39]
- binding result ([3]; label: 5' 6-FAM): binds
- binding result [4]: binds
- binding result [5]: binds

Binder: TTTTTTTTTTTTTTTTTTTTTTTTTTTTTTTTTTTTTTT (ssDNA) [*3'-(T)39]
- binding result ([3]; label: 3' 6-FAM): binds

Binder: ACTGCCCTTACAGCACAGCGGTTTTTTTTTT (ssDNA) [ss31]
- Kd ([6]; label: 5' 6-FAM): 5.7 ± 0.3 µM

Binder: TTTTTTTTTTTTTTTTTTTTCTTGACAAGCTTGCGCACT (ssDNA) [ss39]
- Kd ([7]; label: 3' 6-FAM): 10.4 ± 0.7 µM
- Kd ([8]; label: 3' 6-FAM): 9.9 ± 0.4 µM
- Kd ([6]; label: 3' 6-FAM): 11.2 ± 0.4 µM
- Kd ([9]; label: 3' 6-FAM): 7.8 ± 0.4 µM
- Kd ([10]; label: 3' 6-FAM): 9.5 ± 0.7 µM
- Kd ([11]; label: 3' 6-FAM): 6.9 ± 0.7 µM
- Kd ([12]; label: 3' 6-FAM): 3.9 ± 0.3 µM
- Kd ([13]; label: 3' 6-FAM): 7.4 ± 0.2 µM
- Kd ([14]; label: 3' 6-FAM): 3.2 ± 0.2 µM

B1: Fork (dsDNA)
DNA 1: TTTTTTTTTTTTTTTTTTTTCTTGACAAGCTTGCGCACT
DNA 2: AGTGCGCAAGCTTGTCAAGGCACTTTTTTTTTTTTTTTT
- Kd [7, 15]: 7.4 ± 0.4 µM
- Kd [8, 15]: 4.6 ± 0.4 µM
- Kd [6, 15]: 7.7 ± 0.5 µM
- Kd [9, 15]: 22.4 ± 0.4 µM
- Kd [10, 15]: 8.2 ± 0.4 µM
- Kd [11, 15]: 18.6 ± 0.7 µM
- Kd [12, 15]: 33.9 ± 0.9 µM
- Kd [13, 15]: 7 ± 0.8 µM
- Kd [14, 15]: 25.6 ± 0.7 µM

B2: 5'-overhang (dsDNA)
DNA 1: TTTTTTTTTTTTTTTTTTTTCTTGACAAGCTTGCGCACT
DNA 2: AGTGCGCAAGCTTGTCAAG
- Kd [7, 16]: 3.8 ± 0.2 µM
- Kd [8, 16]: 3.9 ± 0.3 µM
- Kd [6, 16]: 3.6 ± 0.2 µM
- Kd [9, 16]: 4.3 ± 0.4 µM
- Kd [10, 16]: 3.9 ± 0.2 µM
- Kd [11, 16]: 3.6 ± 0.1 µM
- Kd [12, 16]: 5.1 ± 0.2 µM
- Kd [13, 16]: 3.4 ± 0.3 µM
- Kd [14, 16]: 8.9 ± 0.4 µM

B3: ds39 (dsDNA)
DNA 1: TTTTTTTTTTTTTTTTTTTTCTTGACAAGCTTGCGCACT
DNA 2: AGTGCGCAAGCTTGTCAAGAAAAAAAAAAAAAAAAAAAA
- Kd [7, 17]: 13.6 ± 0.6 µM
- Kd [8, 17]: 12.2 ± 1 µM
- Kd [6, 17]: 19.2 ± 0.9 µM
- Kd [10, 17]: 10 ± 0.9 µM
- Kd [13, 17]: 8.73 ± 0.7 µM

Binder: ACTTACAGCACAGCGGTTTTT (ssDNA) [ss21]
- Kd ([6]; label: 5' 6-FAM): 10.1 ± 0.9 µM

B4: 3'-overhang (dsDNA)
DNA 1: CTTGACAAGCTTGCGCACT
DNA 2: AGTGCGCAAGCTTGTCAAGGCACTTTTTTTTTTTTTTTT
- Kd [7, 18]: 11 ± 0.8 µM
- Kd [8, 18]: 7.1 ± 0.2 µM
- Kd [6, 18]: 14.9 ± 0.7 µM
- Kd [10, 18]: 7.3 ± 0.6 µM
- Kd [13, 18]: 8.7 ± 0.4 µM

B5: ds21 (dsDNA)
DNA 1: ACTTACAGCACAGCGGTTTTT
DNA 2: AAAAACCGCTGTGCTGTAAGT
- Kd [6, 19]: 43.7 ± 0.4 µM

B6: ds26 (dsDNA)
DNA 1: ACTGCCCTTACAGCACAGCGGTTTTT
DNA 2: AAAAACCGCTGTGCTGTAAGGGCAGT
- Kd [6, 19]: 18.8 ± 0.7 µM

Binder: ACTGCCCTTACAGCACAGCGGTTTTT (ssDNA) [ss26]
- Kd ([6]; label: 5' 6-FAM): 9.9 ± 0.6 µM
